The text below walks through data of paper PMC6477179, “FIP200 Claw Domain Binding to p62 Promotes Autophagosome Formation at Ubiquitin Condensates” (Molecular Cell, 2019).

Residue numbers refer to the chain shown, from its start. In names and notes the source's numbering stands.

First the molecules themselves.
B1: GST-p62 aa334-356 (domain or fragment, human, UniProt Q13501 334-356, looked up)
chain: GDDDWTHLSSKEVDPSTGELQSL
notes: p62/SQSTM1, human, residues 334-356; also called pGEX-p62 aa334-356; source: E. coli Rosetta (DE3) pLysS, purified (GSTrap, SEC)
B2: GST-FIP200 CTR aa 1429-1594 (domain or fragment, human, UniProt Q8TDY2 1429-1594, looked up)
chain: ADEGRVDSAMETSMMSVQENIHMLSEEKQRIMLLERTLQLKEEENKRLNQRLMSQSMSSVSSRHSEKIAIRDFQVGDLVLIILDERHDNYVLFTVSPTLYFLHSESLPALDLKPGEGASGASRRPWVLGKVMEKEYCQAKKAQNRFKVPLGTKFYRVKAVSWNKKV
notes: FIP200 (RB1CC1), human, C-terminal region, residues 1429-1594; cloned in pGEX 4T1; also called FIP200 C-terminal region (CTR); source: E. coli Rosetta (DE3) pLysS, purified (GSTrap, SEC)
B3: GFP-FIP200 CTR aa 1429-1594 (domain or fragment, human, UniProt Q8TDY2 1429-1594, looked up)
chain: B2 chain
notes: FIP200 (RB1CC1), human, C-terminal region, residues 1429-1594; source: E. coli Rosetta (DE3) pLysS, purified (HisTrap, TEV, SEC); not shown: His6, N-terminal, cleaved; GFP, N-terminal, kept
B4: GST-p62 FIR 3P (domain or fragment, human, UniProt Q13501 326-380, looked up)
chain: MESDNCSGGDDDWTHLSSKEVDPSTGELQSLQMPESEGPDDLDPDQEGPTGLKEA
notes: also called 3P (S365D, S366D, S370D); triple mutant; source: E. coli Rosetta (DE3) pLysS, purified (GSTrap, SEC)
B5: GST-p62 FIR 4P (domain or fragment, human, UniProt Q13501 326-380, looked up)
chain: B4 chain with S24D
notes: also called 4P (S349D, S365D, S366D, S370D); quadruple mutant; source: E. coli Rosetta (DE3) pLysS, purified (GSTrap, SEC)
B6: FIP200 CTR (aa 1458-1594) (domain or fragment, human, UniProt Q8TDY2 1458-1594, looked up)
chain: RIMLLERTLQLKEEENKRLNQRLMSQSMSSVSSRHSEKIAIRDFQVGDLVLIILDERHDNYVLFTVSPTLYFLHSESLPALDLKPGEGASGASRRPWVLGKVMEKEYCQAKKAQNRFKVPLGTKFYRVKAVSWNKKV
notes: FIP200 (RB1CC1), human, C-terminal region, residues 1458-1594; source: E. coli Rosetta2 (DE3), purified (Ni-NTA, TEV, Superdex S75); not shown: His6, N-terminal, cleaved
B7: FIP200 Claw (aa 1494-1594) (domain or fragment, human, UniProt Q8TDY2 1494-1594, looked up)
chain: EKIAIRDFQVGDLVLIILDERHDNYVLFTVSPTLYFLHSESLPALDLKPGEGASGASRRPWVLGKVMEKEYCQAKKAQNRFKVPLGTKFYRVKAVSWNKKV
modifications: selenomethionine-substituted (crystal)
notes: FIP200 (RB1CC1), human, Claw domain, residues 1494-1594; one monomer in the asymmetric unit, dimer by a crystallographic 2-fold; also called isolated Claw domain; FIP200 Claw domain; source: E. coli BL21(DE3), purified (Ni-NTA, TEV, Superdex 75)

Series [1] deals with B3. As to the kind of experiment: microscopy-based protein-protein interaction assay (bait on beads); GST-tagged bait on glutathione Sepharose 4B beads, 2-5 μM fluorescently labeled prey not washed away (equilibrium), 25 mM HEPES pH 7.5, 150 mM NaCl, 1 mM DTT, 30 min to 1 h at room temperature or 4°C; confocal or spinning disk microscopy. To be noted: both partners purified.
The target in a further series is T1, mCherry-p62 LIRmut (human, UniProt Q13501 1-440, residues 335-338 are mutated to Ala).
T1 construct: p62/SQSTM1, human, full length, LIR motif mutated; also called the LIR mutant; source: E. coli, purified as previously described (Wurzer et al., 2015)
The series is described as above. To be noted: both partners purified.

The target in series [2] is T2, mCherry-p62 wt (human, UniProt Q13501 1-440).
T2 construct: p62/SQSTM1, human, full length; also called full-length mCherry-p62 WT; source: E. coli, purified as previously described (Wurzer et al., 2015)
Described as above. The note with it: both partners purified.

Series [3] concerns the target T2, mCherry-p62 wt. As to the kind of experiment: microscopy-based protein-protein interaction assay (bait on beads); GSH beads coated with GST-2x ubiquitin, excess washed off, incubated with mCherry-p62 (2 μM) and GFP-FIP200 CTR (5 μM) for 1 h, imaged by microscopy. To be noted: both partners purified.
Series [4] concerns the target T3, GFP-FIP200 CTR aa 1458-1594 (human, UniProt Q8TDY2 1458-1594).
T3 construct: FIP200 (RB1CC1), human, C-terminal region, residues 1458-1594; also called GFP-FIP200 CTR WT; WT GFP-FIP200 CTR; source: E. coli Rosetta (DE3) pLysS, purified (HisTrap, TEV, SEC); not shown: His6, N-terminal, cleaved; GFP, N-terminal, kept
As to the kind of experiment: microscopy-based protein-protein interaction assay (bait on beads); GST-tagged bait on glutathione Sepharose 4B beads, 2-5 μM fluorescently labeled prey not washed away (equilibrium), 25 mM HEPES pH 7.5, 150 mM NaCl, 1 mM DTT, 30 min to 1 h at room temperature or 4°C; confocal or spinning disk microscopy. The note with it: both partners purified.

Series [5] addresses T4, FITC-labeled full-length FIP200 (FITC-FIP200-MBP) (human, UniProt Q8TDY2 1-1594, FITC-LPETGG peptide joined to the N-terminal glycine by Δ59SortaseA (FITC on the N-terminus)).
T4 construct: FIP200 (RB1CC1), human, full length; pCAG vector; also called Gly-FIP200-MBP; source: HEK293-GnT1 suspension cells, purified (Glutathione Sepharose, TEV, amylose resin, Superose 6); not shown: GST, N-terminal, cleaved; MBP, C-terminal, kept
The series is described as above. To be noted: both partners purified.

In a further series the target is T5, GFP-FIP200 CTR N1517F (human, UniProt Q8TDY2 1458-1594, N1517F).
T5 construct: FIP200 (RB1CC1), human, C-terminal region, residues 1458-1594; source: E. coli Rosetta (DE3) pLysS, purified (HisTrap, TEV, SEC); not shown: His6, N-terminal, cleaved; GFP, N-terminal, kept
The description is as above. The note with it: both partners purified.

Series [6] concerns the molecule itself. Put plainly: SEC with right-angle light scattering; 100 μl of 3 mg/ml FIP200 CTR on Superdex S75 10/300 with RALS-refractive index detector; 25 mM HEPES pH 7.5, 150 mM NaCl.
Series [7] concerns the molecule itself. As to the kind of experiment: crystal structure; FIP200 Claw aa 1494-1594, SeMet crystal, 1.56 Å, space group C2221, one monomer in the asymmetric unit; 0.1 M HEPES pH 7.4, 2 M ammonium sulfate.

In the case of B1, the binding result in series [1] was “binds”.
For the molecule B2, the binding result in the series with mCherry-p62 LIRmut and in the series with mCherry-p62 wt [2] was “binds” each time.
With B3, the binding result in the series with mCherry-p62 wt [3] was “binds”.
Take B4: the binding result in series [4] is reported as “binds”.
Consider B5, for which the binding result (in series [5]; with GFP-FIP200 CTR N1517F; in [4]) was “binds” in each case.
For B6, the “stoichiometry N” value in [6] amounted to 2.
For B7, in series [7], the binding result is given as “binds”.

The term stoichiometry N denotes the number of molecules, sites or subunits per partner or assembly.
